Reference: PMC3202462

Key:
[1] = target: E-domain of gephyrin (residues 309-750, P1 variant); assay: ITC
[2] = target: GST-α1 T375E (mouse) (UniProt P62812); assay: far-Western, overlay or dot blot
[3] = target: GST-α1 T375A (mouse) (UniProt P62812); assay: far-Western, overlay or dot blot
[4] = target: GST fusion of the intracellular loop of the GABAAR α2 subunit; assay: far-Western, overlay or dot blot
[5] = target: GST fusion of the intracellular domain of the GABAAR α5 subunit; assay: far-Western, overlay or dot blot
[6] = target: GST-α1 T375D (mouse) (UniProt P62812); assay: far-Western, overlay or dot blot

6-His-tagged GABAAR α1 T375A cytoplasmic loop (domain or fragment)
Kd [1]: 36 µM
dH [1]: -15 kcal/mol
stoichiometry N [1]: 0.64

6-His-tagged GABAAR α1 T375E cytoplasmic loop (domain or fragment)
Kd [1]: 183 µM
stoichiometry N [1]: 0.69

6-His-tagged GABAAR α1 cytoplasmic loop (M3-M4), wild type (domain or fragment)
Kd [1]: 17 µM
stoichiometry N [1]: 0.62

35S-methionine-labelled gephyrin, P1 isoform (natural protein)
gephyrin binding normalised to GST-α1 (100%) [2]: 62.5%
gephyrin binding, % of control [3]: 109 % of control
gephyrin binding, % of GST-α1 [4]: 43.7 % of GST-α1
gephyrin binding, % of control [5]: 12.9 % of control
gephyrin binding normalised to GST-α1 (100%) [6]: 68.9%
